Data taken from paper PMC4490436.
No end group written: not given here. *: point of attachment. OAll = C=CCO*

Tests used:
[1] = target: CXCR4 receptor (human (endogenous in CCRF-CEM)) (UniProt P61073)
[2] = target: CXCR4 receptor (human (endogenous in CCRF-CEM)) (UniProt P61073); remark: listed apart in the source

Sequence of UniProt P61073 (P61073 whole entry): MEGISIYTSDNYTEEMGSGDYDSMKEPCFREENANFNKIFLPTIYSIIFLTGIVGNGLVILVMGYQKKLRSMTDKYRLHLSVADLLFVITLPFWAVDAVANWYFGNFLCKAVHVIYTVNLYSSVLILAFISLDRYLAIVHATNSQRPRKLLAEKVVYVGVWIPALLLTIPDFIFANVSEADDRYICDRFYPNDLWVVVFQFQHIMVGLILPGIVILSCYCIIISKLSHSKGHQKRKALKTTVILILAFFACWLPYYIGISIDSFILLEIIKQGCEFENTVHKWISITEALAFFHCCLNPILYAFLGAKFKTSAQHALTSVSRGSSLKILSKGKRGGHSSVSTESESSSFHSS

YGECPCK-OAll (cysteine pairing not given here) [PepK]
migration index of CCRF-CEM cells towards CXCL12 (100 ng/mL) in a Transwell assay; 1.75-fold without peptide [1]: 1.55 fold

YGECPCE-OAll (cysteine pairing not given here) [PepE]
increase of the cAMP level in CCRF-CEM cells in the presence of CXCL12 (100 ng/mL) and forskolin (1 uM); PepE at 1 and 10 uM (20% at 1 uM), dose dependent [2]: 65%
migration index of CCRF-CEM cells towards CXCL12 (100 ng/mL) in a Transwell assay; 1.75-fold without peptide [1]: 1.35 fold
